Measurements as given in patent US20180171024A1.

How the values were obtained:
[1] = molecular target: single-chain recombinant HLA-A2/WT1 126-134 complex (human); experiment: SPR (ProteOn), biotinylated scHLA-A2/WT1 on NeutrAvidin, Fab as analyte; faster dissociation told in words
[2] = molecular target: HLA-A2 on HLA-A2+ cells that do not express WT1 (tumor cell lines, normal primary cells); experiment: flow cytometry on SKMEL-5 melanoma cells (WT1 mRNA -)
[3] = molecular target: Unloaded T2 (Homo sapiens); experiment: flow cytometry, unloaded T2 cells; design: reference not given here
[4] = molecular target: HLA-A2/WT1 126-134 complex on T2 cells (human); experiment: flow cytometry, T2 cells loaded with WT1 peptide 1x10e-4M
[5] = molecular target: HLA-A2 on HLA-A2+ cells that do not express WT1 (tumor cell lines, normal primary cells); experiment: flow cytometry on 501A melanoma cells (WT1 mRNA -)
[6] = molecular target: HLA-A2/WT1 126-134 complex on T2 cells (human); experiment: flow cytometry, T2 cells loaded with 10^-4 M WT1 peptide
[7] = molecular target: HLA-A2/Tyrosinase369-377 complex on cells (human); experiment: flow cytometry, T2 cells loaded with 10^-4 M peptide; design: reference not given here
[8] = molecular target: P68 … (Homo sapiens); experiment: as above; design: reference not given here
[9] = molecular target: HLA-A2/PAP 112-120 complex on T2 cells (human); experiment: as above
[10] = molecular target: HLA-A2/MAGE-A9 223-231 complex on T2 cells (human); experiment: as above
[11] = molecular target: HLA-A2/MAGE-A4 230-239 complex on cells (human); experiment: as above
[12] = molecular target: HLA-A2 on other WT1 negative HLA-A2+ cells (other than 501, A498 and SKMEL; members not named); experiment: flow cytometry on JVM-2 cells (WT1 mRNA -)
[13] = molecular target: HLA-A2 on HLA-A2+/WT1+ BV173 cells (WT1 mRNA positive; WT1 126-134 peptide not detected by mass spectrometry of eluted HLA peptides); experiment: flow cytometry on BV173 cells (WT1 mRNA +)
[14] = molecular target: HLA-A2/WT1 126-134 complex on T2 cells (human); experiment: flow cytometry, T2 cells loaded with WT1 1x10e-4M in DMSO
[15] = molecular target: HLA-A2/WT1-S11 on T2 cells (human); experiment: flow cytometry, peptide-loaded T2 cells (10^-4-10^-5 M)
[16] = molecular target: HLA-A2/WT1-S6 on T2 cells (human); experiment: as above
[17] = molecular target: HLA-A2/WT1-S7 on T2 cells (human); experiment: as above
[18] = molecular target: HLA-A2/WT1-S13 on T2 cells (human); experiment: as above
[19] = molecular target: HLA-A2/WT1-S22 on T2 cells (human); experiment: as above
[20] = molecular target: HLA-A2/WT1-S10 on T2 cells (human); experiment: as above
[21] = molecular target: HLA-A2/WT1-S16 on T2 cells (human); experiment: as above
[22] = molecular target: HLA-A2 on other WT1 negative HLA-A2+ cells (other than 501, A498 and SKMEL; members not named); experiment: flow cytometry on IM-9 cells (WT1 mRNA -)
[23] = molecular target: HLA-A2 on HLA-A2+/WT1+ SET2 cells (WT1 mRNA positive; WT1 126-134 peptide not detected by mass spectrometry of eluted HLA peptides); experiment: flow cytometry on SET-2 cells (WT1 mRNA +)
[24] = molecular target: HLA-A2 on HLA-A2+ cells that do not express WT1 (tumor cell lines, normal primary cells); experiment: flow cytometry on A498 cells (WT1 mRNA -)
[25] = molecular target: HLA-A2/WT1 126-134 complex on T2 cells (human); experiment: flow cytometry, T2 cells loaded with WT1 peptide 1x10e-5M
[26] = molecular target: HLA-A2 on other WT1 negative HLA-A2+ cells (other than 501, A498 and SKMEL; members not named); experiment: flow cytometry on U266 cells (WT1 mRNA -)

**Q.** For ESK1 TCRL Fab, which Kd [1] is on record?
**A.** 200 nM

**Q.** What does the source list for ESK1 TCR-like antibody (IgG)?
**A.** MFI [2]: 4.3; MFI [3]: 1; MFI [4]: 17.9; MFI [5]: 10.7; MFI [6]: 18; MFI [7]: 1; MFI [8]: 1; MFI [9]: 1.1; MFI [10]: 1; MFI [11]: 1.1; MFI [12]: 1; MFI [13]: 8.1; MFI [14]: 17.9; MFI [15]: 1.1; MFI [16]: 5; MFI [17]: 3.1; MFI [18]: 1.1; MFI [19]: 1.1; MFI [20]: 1.4; MFI [21]: 1.1; MFI [22]: 1.2; MFI [23]: 26.3; MFI [24]: 5.2; MFI [25]: 1.6; MFI [26]: 1.9
